Data published in patent EP4711384A1 (WIO Bioscience Co., Ltd., dated 2026).
Several values for one entry are separate records, joined by “and”; a condition that tells them apart may be missing. Equal entries are not always repeated. Where two headings read alike, the source gives them in different places.

T1: human IL-18R1 ECD-His (human) (UniProt Q13478)
T1 sequence: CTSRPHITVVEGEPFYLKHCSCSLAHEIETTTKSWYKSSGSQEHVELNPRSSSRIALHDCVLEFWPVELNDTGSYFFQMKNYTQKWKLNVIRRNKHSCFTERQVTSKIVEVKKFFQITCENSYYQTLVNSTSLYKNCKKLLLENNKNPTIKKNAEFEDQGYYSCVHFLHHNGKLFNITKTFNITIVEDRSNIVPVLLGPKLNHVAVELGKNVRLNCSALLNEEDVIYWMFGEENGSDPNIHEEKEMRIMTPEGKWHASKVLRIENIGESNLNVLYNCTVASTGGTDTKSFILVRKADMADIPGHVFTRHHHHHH

T2: human IL-18RAP ECD-His (human) (UniProt O95256)
T2 sequence: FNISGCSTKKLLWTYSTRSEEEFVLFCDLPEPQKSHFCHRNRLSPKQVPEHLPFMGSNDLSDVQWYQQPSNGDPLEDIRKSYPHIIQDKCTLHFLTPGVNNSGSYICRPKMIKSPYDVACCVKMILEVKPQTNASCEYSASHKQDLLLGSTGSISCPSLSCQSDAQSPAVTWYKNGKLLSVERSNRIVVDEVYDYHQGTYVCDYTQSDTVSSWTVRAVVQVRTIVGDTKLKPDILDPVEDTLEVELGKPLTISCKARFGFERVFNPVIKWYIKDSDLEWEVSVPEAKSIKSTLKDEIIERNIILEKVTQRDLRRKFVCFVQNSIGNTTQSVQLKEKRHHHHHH

T3: human IL-18R1 and IL-18RAP on IL-18 Reporter HEK 293 Cells (human, UniProt Q13478 19-541; O95256 20-599)
T3 sequence (looked up) 1: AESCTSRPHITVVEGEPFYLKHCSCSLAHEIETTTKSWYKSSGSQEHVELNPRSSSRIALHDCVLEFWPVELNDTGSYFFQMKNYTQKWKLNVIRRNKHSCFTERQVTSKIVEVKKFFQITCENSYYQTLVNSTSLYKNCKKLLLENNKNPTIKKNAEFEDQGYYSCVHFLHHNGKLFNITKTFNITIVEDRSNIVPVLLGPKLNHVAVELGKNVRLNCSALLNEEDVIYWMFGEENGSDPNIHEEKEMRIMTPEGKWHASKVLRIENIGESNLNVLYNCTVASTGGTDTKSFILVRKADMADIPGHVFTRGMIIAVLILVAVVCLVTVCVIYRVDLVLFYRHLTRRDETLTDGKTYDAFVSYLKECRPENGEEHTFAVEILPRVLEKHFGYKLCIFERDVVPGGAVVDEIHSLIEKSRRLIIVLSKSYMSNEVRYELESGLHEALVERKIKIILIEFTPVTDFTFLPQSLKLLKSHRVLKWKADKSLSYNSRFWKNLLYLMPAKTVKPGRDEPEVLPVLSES
T3 sequence (looked up) 2: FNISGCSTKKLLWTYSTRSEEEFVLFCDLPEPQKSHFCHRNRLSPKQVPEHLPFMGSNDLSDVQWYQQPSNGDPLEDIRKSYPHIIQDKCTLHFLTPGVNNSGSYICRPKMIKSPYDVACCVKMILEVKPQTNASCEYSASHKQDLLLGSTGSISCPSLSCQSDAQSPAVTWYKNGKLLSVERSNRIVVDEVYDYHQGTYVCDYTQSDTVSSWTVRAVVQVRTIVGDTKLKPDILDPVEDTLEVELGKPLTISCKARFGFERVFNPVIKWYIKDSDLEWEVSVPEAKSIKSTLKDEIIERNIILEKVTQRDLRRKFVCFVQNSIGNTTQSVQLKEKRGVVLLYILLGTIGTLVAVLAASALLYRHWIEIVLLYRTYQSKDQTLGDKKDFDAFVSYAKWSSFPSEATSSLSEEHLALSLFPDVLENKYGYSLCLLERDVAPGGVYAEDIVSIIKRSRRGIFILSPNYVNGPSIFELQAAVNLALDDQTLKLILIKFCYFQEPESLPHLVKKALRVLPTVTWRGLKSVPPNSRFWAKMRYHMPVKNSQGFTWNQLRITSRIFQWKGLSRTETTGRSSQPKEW

B1: Wio-02-11 (R1-C10-GGGGS-Rap-C10) (bispecific antibody)
chain: QVQLQESGGGSVQAGETLRLSCTASGSTFDEYDMGWYRQAPGNKCELVSTISTIDGSTYYADSVKGRFTISQDNTKNTVYLQMNSLKPEDTGVYYCEADDRGTWDRGGCWGQGTQVTVSSGGGGSQVQLQESGGGSVQPGGSLRLSCAASGFTYIPAYMGWFRQAPGKERERVASISSTDGSTTYADSVKGRFTVSQDTAKNTLYLQMNSLKPEDTAMYYCAAYQFGAFRVWGQGTQVTVSS
B2: Rap-A10 (VHH)
VHH: QVQLQESGGGLVQAGGSLKLSCAASGYTYGPYCMGWFRQFPGKEREGVAAVGGDGRTWYGNSVKGRFTISQDNAKKTLYLQINALKPEDTAMYYCAADFDRTVCSDDIYDYTYRGQGTQVTVSS
B3: Wio-02-01 (R1-A12-GGGGS-Rap-A10) (bispecific antibody)
chain: QVQLQESGGGPVQAGGSLRLSCSASTTAYDNACMGWFRQAPGKEREGVASIHLRDRTYYADSVKGRFTLSRDGASKTLYLQMNSLKPEDSGTYYCASSNICNGLNLQGNTYWGQGTQVTVSSGGGGSQVQLQESGGGLVQAGGSLKLSCAASGYTYGPYCMGWFRQFPGKEREGVAAVGGDGRTWYGNSVKGRFTISQDNAKKTLYLQINALKPEDTAMYYCAADFDRTVCSDDIYDYTYRGQGTQVTVSS
B4: R1-C10 (VHH)
VHH: QVQLQESGGGSVQAGETLRLSCTASGSTFDEYDMGWYRQAPGNKCELVSTISTIDGSTYYADSVKGRFTISQDNTKNTVYLQMNSLKPEDTGVYYCEADDRGTWDRGGCWGQGTQVTVSS
B5: R1-F9 (VHH)
VHH: QVQLQESGGGSVQAGETLRLSCTASGFTVHDMGWYRQAPGNECELVSTISSDGSTYYADSVKGRFTISQDNAKNTVYLQMNSLKPEDTAVYYCAADHFTGLQLAECKADFGYWGQGTQVTVSS
B6: Rap-F11 (VHH)
VHH: QVQLQESGGGSVQPGGSLRLSCAASGFTYIPAYMGWFRQAPGKERERVASIKTDGSTTYADSVNGRFTIAQDTAKNTLYLQMDSLKPEDTAMYYCAAYQFGAFRVWGQGTQVTVSS
B7: R1-A12 (VHH)
VHH: QVQLQESGGGPVQAGGSLRLSCSASTTAYDNACMGWFRQAPGKEREGVASIHLRDRTYYADSVKGRFTLSRDGASKTLYLQMNSLKPEDSGTYYCASSNICNGLNLQGNTYWGQGTQVTVSS
B8: Rap-C10 (VHH)
VHH: QVQLQESGGGSVQPGGSLRLSCAASGFTYIPAYMGWFRQAPGKERERVASISSTDGSTTYADSVKGRFTVSQDTAKNTLYLQMNSLKPEDTAMYYCAAYQFGAFRVWGQGTQVTVSS
B9: Wio-02-09 (R1-C10-GGGGS-Rap-F11) (bispecific antibody)
chain: QVQLQESGGGSVQAGETLRLSCTASGSTFDEYDMGWYRQAPGNKCELVSTISTIDGSTYYADSVKGRFTISQDNTKNTVYLQMNSLKPEDTGVYYCEADDRGTWDRGGCWGQGTQVTVSSGGGGSQVQLQESGGGSVQPGGSLRLSCAASGFTYIPAYMGWFRQAPGKERERVASIKTDGSTTYADSVNGRFTIAQDTAKNTLYLQMDSLKPEDTAMYYCAAYQFGAFRVWGQGTQVTVSS
B10: R1-C7 (VHH)
VHH: QVQLQESGGGPVQAEGSLRLSCTASGNLYRDPCMGWFRQAPGKDREGVAAMNTGADSTFYARSVKGRFTISHDNAKNTLYLQMNSVKPEDTAMYYCAASRYCTERTWTWRYDYDYWGQGTQVTVSS
B11: R1-E12 (VHH)
VHH: QVQLQESGGGSVQAGGSLRLSCVASGTTMSMNYMAWFRQAPGKEREGVASIFRSTHYADSVKGRFTIAEDSAKNTVYLQMNSLKPEDTAVYYCAAGRTKPYLTPLAESQYNYWGQGIQVTVSS

Legend:
[1] = molecular target: human IL-18R1 and IL-18RAP on IL-18 Reporter HEK 293 Cells (human) (UniProt Q13478); test: cell-based or functional assay
[2] = molecular target: human IL-18R1 and IL-18RAP on IL-18 Reporter HEK 293 Cells (human) (UniProt Q13478); test: cell-based or functional assay; remark: listed apart in the source
[3] = molecular target: T1, human IL-18R1 ECD-His (human); test: phage ELISA, 16-fold dilution
[4] = molecular target: T2, human IL-18RAP ECD-His (human); test: phage ELISA, 16-fold dilution
[5] = molecular target: T1, human IL-18R1 ECD-His (human); test: phage ELISA, 4-fold dilution
[6] = molecular target: T2, human IL-18RAP ECD-His (human); test: phage ELISA, 4-fold dilution
[7] = molecular target: T3, human IL-18R1 and IL-18RAP on IL-18 …; test: cell-based or functional assay
[8] = molecular target: T1, human IL-18R1 ECD-His (human); test: sandwich ELISA, IL-18RAP ECD-hFc detection
[9] = molecular target: T3, human IL-18R1 and IL-18RAP on IL-18 …; test: cell-based or functional assay; remark: listed apart in the source

Row | Molecule | ELISA OD [3] | ELISA OD [4] | ELISA OD [5] | ELISA OD [6] | also measured
1 | recombinant human IL-18 (from UniProt Q14116 37-193) (ligand) | – | – | – | – | EC50 [1]: 0.121 ng/mL; Top630nm [1]: 2.27; EC50 [2]: 0.117 ng/mL; EC50, SEAP reporter [2]: 0.107 ng/mL; Top630nm [2]: 2.44
2 | NC | 0.055 | 0.068 | 0.059 | 0.06 | –
3 | B1 | – | – | – | – | SEAP reporter OD, supernatant 5X [7]: 2.85; SEAP reporter OD, supernatant 25X [7]: 2.17; ELISA OD [8]: 2.03 and 2.15
4 | B2 | – | 1.57 | – | 1.83 | –
5 | B3 | – | – | – | – | SEAP reporter OD, supernatant 5X [7]: 2.13; SEAP reporter OD, supernatant 25X [7]: 1.92; ELISA OD [8]: 2.14 and 2.26; EC50 [9]: 1.87 ng/mL
6 | B4 | 0.977 | – | 1.33 | – | –
7 | B5 | 1.63 | – | 2.04 | – | –
8 | B6 | – | 1.58 | – | 2 | –
9 | B7 | 2.64 | – | 2.71 | – | –
10 | B8 | – | 1.58 | – | 1.85 | –
11 | B9 | – | – | – | – | SEAP reporter OD, supernatant 5X [7]: 1.91; SEAP reporter OD, supernatant 25X [7]: 1.87; ELISA OD [8]: 1.81 and 1.82
12 | B10 | 0.819 | – | 1 | – | –
13 | B11 | 2.71 | – | 2.76 | – | –
